Earlier results as cited in publication PMC9760969.

Target: CD95L (Homo sapiens) (UniProt P48023)
Chain of UniProt P48023 (P48023 130-281): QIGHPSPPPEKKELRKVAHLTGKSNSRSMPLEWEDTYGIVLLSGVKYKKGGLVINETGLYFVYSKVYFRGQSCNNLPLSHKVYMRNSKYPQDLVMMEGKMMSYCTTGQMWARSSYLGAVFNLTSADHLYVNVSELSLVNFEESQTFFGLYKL

Kd: 1.23 pM
Substance: DR5 (from UniProt O14763)
